Reference: article PMC6685058 (2019)

B1: AD-CEBP-1(aa 1–319) FL [C. elegans] / BD-IMA-3(aa 278–514) [C. elegans] (parent complex)
chain 1: MYSKLNYSHQKGDQALKHPHLVRLQQSEVRGFTDMPNNGASTSSAGSFARQDSLTIAASLQQRDRERHPVDFMETELDLGDYLQVLHDLDVPTDNVDFDDAELQKCNILYDGEHPYEQPELNGYERHVAYGTGYRVPGDYDQDGYKMNCEVKAETPDFGATKTRRAVKRPVPYDDYQKEYSEESSDMTDNDGSVDDSYFEPKSKKTKSAGLENFKPQTRARKYKLKADEEKAEPTYKLKRARNNDAVRKSRKKAKELQDKKEAEHDKMKRRIAELEGLLQSERDARRRDQDTLEQLLRNKGPMKEQRMPQRHILENFNK
chain 2: VVTHLVPLLGHVDVKVQTAALRAVGNIVTGTDEQTQLVLDSGVLRFMPGLLAHYKEKINKEAVWFVSNITAGNQQQVQDVFDAGIMPMIIHLLDRGDFPTQKEAAWAISNVTISGRPNQVEQMVKLGVLRPFCAMLSCTDSQIIQVVLDGINNILKMAGEAAEQVTSEIEECGGLDKIENLQNHENEDIYKLAFEIIDNFFSSDDETGNVEGAQSSAFGGDVPPVPDAPNGGWNFGK

Variants of: B1
Assay: yeast two-hybrid, β-galactosidase activity; parent: 110; read off a plot

| response [Miller units] | Variant |
| --- | --- |
| ~110 | chain 1 MYSKLNYSHQKGDQALKHPHLVRLQQSEVRGFTDMPNNGASTSSAGSFARQDSLTIAASLQQRDRERHPVDFMETELDLGDYLQVLHDLDVPTDNVDFDDAELQKCNILYDGEHPYEQPELNGYERHVAYGTGYRVPGDYDQDGYKMNCEVKAETPDFGATKTRRAVKRPVPYDDYQKEYSEESSDMTDNDGSVDDSYFEPKSAATASAGLENFKPQTRARKYKLKADEEKAEPTYKLKRARNNDAVRKSRKKAKELQDKKEAEHDKMKRRIAELEGLLQSERDARRRDQDTLEQLLRNKGPMKEQRMPQRHILENFNK [chain 1 K204A, chain 1 K205A, chain 1 K207A] |
| ~190 | chain 1 MYSKLNYSHQKGDQALKHPHLVRLQQSEVRGFTDMPNNGASTSSAGSFARQDSLTIAASLQQRDRERHPVDFMETELDLGDYLQVLHDLDVPTDNVDFDDAELQKCNILYDGEHPYEQPELNGYERHVAYGTGYRVPGDYDQDGYKMNCEVKAETPDFGATKTRRAVKRPVPYDDYQKEYSEESSDMTDNDGSVDDSYFEPKSKKTKSAGLENFKPQTRARKYKLKADEEKAEPTYKLAAARNNDAVRKSRKKAKELQDKKEAEHDKMKRRIAELEGLLQSERDARRRDQDTLEQLLRNKGPMKEQRMPQRHILENFNK [chain 1 K239A, chain 1 R240A] |
| ~17 | chain 1 MYSKLNYSHQKGDQALKHPHLVRLQQSEVRGFTDMPNNGASTSSAGSFARQDSLTIAASLQQRDRERHPVDFMETELDLGDYLQVLHDLDVPTDNVDFDDAELQKCNILYDGEHPYEQPELNGYERHVAYGTGYRVPGDYDQDGYKMNCEVKAETPDFGATATARAVAAPVPYDDYQKEYSEESSDMTDNDGSVDDSYFEPKSKKTKSAGLENFKPQTRARKYKLKADEEKAEPTYKLKRARNNDAVRKSRKKAKELQDKKEAEHDKMKRRIAELEGLLQSERDARRRDQDTLEQLLRNKGPMKEQRMPQRHILENFNK [chain 1 K162A, chain 1 R164A, chain 1 K168A, chain 1 R169A] |
